Laboratory results from doi:10.1101/2024.08.01.606258.

Target: avGFP [GFP: P42212]
Assay: SEC

avGFP (from UniProt P42212 1-237) (natural protein)
stoichiometry N: 2
